Source: patent publication US20240392004A1 (IMMUNOWAKE, published 2024)

Experiments:
Test in all cases: cell-based or functional assay
[1] = target: T1, human TIGIT on HEK-Blue reporter cells (human, UniProt Q495A1 22-244)
T1 sequence (looked up): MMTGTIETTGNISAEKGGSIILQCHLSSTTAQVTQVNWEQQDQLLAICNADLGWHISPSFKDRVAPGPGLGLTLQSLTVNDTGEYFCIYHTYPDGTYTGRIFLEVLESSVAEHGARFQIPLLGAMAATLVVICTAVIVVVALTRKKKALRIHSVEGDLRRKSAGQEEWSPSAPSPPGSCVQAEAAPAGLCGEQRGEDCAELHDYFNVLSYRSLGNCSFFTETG

[2] = target: human IL-12 receptor complex (IL-12Rβ1 and IL-12Rβ2) (human, UniProt P42701 24-662; Q99665 24-862)
Sequence of human IL-12 receptor complex (IL-12Rβ1 and IL-12Rβ2) (Q99665 24-862, chain 2 of 2, other chains not shown): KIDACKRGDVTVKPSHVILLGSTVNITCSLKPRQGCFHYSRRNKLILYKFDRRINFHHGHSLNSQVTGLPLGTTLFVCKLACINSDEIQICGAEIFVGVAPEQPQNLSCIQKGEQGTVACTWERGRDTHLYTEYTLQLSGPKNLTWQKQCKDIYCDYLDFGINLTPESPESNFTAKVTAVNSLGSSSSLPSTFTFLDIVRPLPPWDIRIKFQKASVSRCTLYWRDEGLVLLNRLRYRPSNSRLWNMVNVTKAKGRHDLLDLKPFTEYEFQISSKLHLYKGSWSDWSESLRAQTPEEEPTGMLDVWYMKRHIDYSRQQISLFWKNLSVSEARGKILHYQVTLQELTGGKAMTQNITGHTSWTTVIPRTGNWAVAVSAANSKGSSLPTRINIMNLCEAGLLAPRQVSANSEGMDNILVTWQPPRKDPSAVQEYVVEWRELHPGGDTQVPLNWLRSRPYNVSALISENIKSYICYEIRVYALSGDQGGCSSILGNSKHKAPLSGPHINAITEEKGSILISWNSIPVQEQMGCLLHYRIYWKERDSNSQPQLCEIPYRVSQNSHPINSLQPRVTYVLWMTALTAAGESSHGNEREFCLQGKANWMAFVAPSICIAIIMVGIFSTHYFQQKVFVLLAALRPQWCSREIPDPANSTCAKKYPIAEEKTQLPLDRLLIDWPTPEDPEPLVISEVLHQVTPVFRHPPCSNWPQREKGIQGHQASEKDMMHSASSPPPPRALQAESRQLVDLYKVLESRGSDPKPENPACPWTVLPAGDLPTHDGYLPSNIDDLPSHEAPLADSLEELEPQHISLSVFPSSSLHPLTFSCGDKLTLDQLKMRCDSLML

[3] = target: T2, human IL-2 receptor (IL-2Rα, IL-2Rβ, IL-2Rγ) (human, UniProt P01589 22-272; P14784 27-551; P31785 23-369)
T2 sequence (looked up) 1: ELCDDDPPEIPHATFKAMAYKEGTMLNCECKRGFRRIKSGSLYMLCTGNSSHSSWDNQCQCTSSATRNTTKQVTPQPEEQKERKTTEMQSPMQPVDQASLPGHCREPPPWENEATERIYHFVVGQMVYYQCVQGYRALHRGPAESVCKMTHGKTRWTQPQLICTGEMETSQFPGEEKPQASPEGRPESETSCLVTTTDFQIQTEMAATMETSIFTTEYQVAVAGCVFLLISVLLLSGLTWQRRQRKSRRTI
T2 sequence (looked up) 2: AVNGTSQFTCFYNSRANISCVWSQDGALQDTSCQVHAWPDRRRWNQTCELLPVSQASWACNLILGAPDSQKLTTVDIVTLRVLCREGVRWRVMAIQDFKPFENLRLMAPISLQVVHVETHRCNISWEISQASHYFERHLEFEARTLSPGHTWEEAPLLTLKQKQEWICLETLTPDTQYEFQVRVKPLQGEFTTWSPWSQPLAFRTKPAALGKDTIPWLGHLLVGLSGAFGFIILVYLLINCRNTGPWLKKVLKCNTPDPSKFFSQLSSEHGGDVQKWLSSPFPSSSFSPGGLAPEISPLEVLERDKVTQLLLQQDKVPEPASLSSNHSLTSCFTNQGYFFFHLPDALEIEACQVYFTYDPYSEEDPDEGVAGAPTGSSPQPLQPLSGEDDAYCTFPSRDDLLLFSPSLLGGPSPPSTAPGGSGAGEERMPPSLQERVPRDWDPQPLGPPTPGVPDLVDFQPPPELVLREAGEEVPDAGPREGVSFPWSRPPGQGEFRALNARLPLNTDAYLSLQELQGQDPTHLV
T2 sequence (looked up) 3: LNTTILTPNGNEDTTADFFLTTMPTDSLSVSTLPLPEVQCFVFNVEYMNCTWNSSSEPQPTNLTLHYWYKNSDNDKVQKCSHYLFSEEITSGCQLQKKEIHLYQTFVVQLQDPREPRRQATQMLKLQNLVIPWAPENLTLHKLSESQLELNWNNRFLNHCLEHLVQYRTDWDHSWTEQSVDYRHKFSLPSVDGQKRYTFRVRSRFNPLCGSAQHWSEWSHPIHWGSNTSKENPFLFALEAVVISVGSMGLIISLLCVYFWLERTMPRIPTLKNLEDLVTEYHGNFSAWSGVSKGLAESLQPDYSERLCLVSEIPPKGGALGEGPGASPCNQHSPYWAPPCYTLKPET

B1: IL-12(E59A/F60A)/IL-2(R38D/K43E/E61R/Q126T)/CD155-Fc (Fc fusion)
chain 1: WPPPGTGDVVVQAPTQVPGFLGDSVTLPCYLQVPNMEVTHVSQLTWARHGESGSMAVFHQTQGPSYSESKRLEFVAARLGAELRNASLRMFGLRVEDEGNYTCLFVTFPQGSRSVDIWLRVLAKPQNTAEVQKVQLTGEPVPMARCVSTGGRPPAQITWHSDLGGMPNTSQVPGFLSGTVTVTSLWILVPSSQVDGKNVTCKVEHESFEKPQLLTVNLTVYYPPEVSISGYDNNWYLGQNEATLTCDARSNPEPTGYNWSTTMGPLPPFAVAQGAQLLIRPVDKPINTTLICNVTNALGARQAELTVQVKEGPPSEHSGISRNGGGGSGGGIWELKKDVYVVELDWYPDAPGEMVVLTCDTPEEDGITWTLDQSSEVLGSGKTLTIQVKAAGDAGQYTCHKGGEVLSHSLLLLHKKEDGIWSTDILKDQKEPKNKTFLRCEAKNYSGRFTCWWLTTISTDLTFSVKSSRGSSDPQGVTCGAATLSAERVRGDNKEYEYSVECQEDSACPAAEESLPIEVMVDAVHKLKYENYTSSFFIRDIIKPDPPKNLQLKPLKNSRQVEVSWEYPDTWSTPHSYFSLTFCVQVQGKSKREKKDRVFTDKTSATVICRKNASISVRAQDRYYSSSWSEWASVPCSGGGGSGGGSGGGGSRNLPVATPDPGMFPCLHHSQNLLRAVSNMLQKARQTLEFYPCTSEEIDHEDITKDKTSTVEACLPLELTKNESCLNSRETSFITNGSCLASRKTSFMMALCLSSIYEDLKMYQVEFKTMNAKLLMDPKRQIFLDQNMLAVIDELMQALNFNSETVPQKSSLEEPDFYKTKIKLCILLHAFRIRAVTIDRVMSYLNASGGGGSGGGDKTHTCPPCPAPEDEGGPSVFLFPPKPKDTLMISRTPEVTCVVVDVSHEDPEVKFNWYVDGVEVHNAKTKPREEQYNSTYRVVSVLTVLHQDWLNGKEYKCKVSNKALPAPIEKTISKAKGQPREPQVYVYPPSREEMTKNQVSLTCLVKGFYPSDIAVEWESNGQPENNYKTTPPVLDEDGSFALVSKLTVDKSRWQQGNVFSCSVMHEALHNHYTQKSLSLSPGK
chain 2: WPPPGTGDVVVQAPTQVPGFLGDSVTLPCYLQVPNMEVTHVSQLTWARHGESGSMAVFHQTQGPSYSESKRLEFVAARLGAELRNASLRMFGLRVEDEGNYTCLFVTFPQGSRSVDIWLRVLAKPQNTAEVQKVQLTGEPVPMARCVSTGGRPPAQITWHSDLGGMPNTSQVPGFLSGTVTVTSLWILVPSSQVDGKNVTCKVEHESFEKPQLLTVNLTVYYPPEVSISGYDNNWYLGQNEATLTCDARSNPEPTGYNWSTTMGPLPPFAVAQGAQLLIRPVDKPINTTLICNVTNALGARQAELTVQVKEGPPSEHSGISRNGGGSGAPTSSSTKKTQLQLEHLLLDLQMILNGINNYKNPKLTDMLTFEFYMPKKATELKHLQCLERELKPLEEVLNLAQSKNFHLRPRDLISNINVIVLELKGSETTFMCEYADETATIVEFLNRWITFCTSIISTLTGGGGSGGGDKTHTCPPCPAPEKKGGPSVFLFPPKPKDTLMISRTPEVTCVVVDVSHEDPEVKFNWYVDGVEVHNAKTKPREEQYNSTYRVVSVLTVLHQDWLNGKEYKCKVSNKALPAPIEKTISKAKGQPREPQVYVLPPSREEMTKNQVSLLCLVKGFYPSDIAVEWESNGQPENRYMTWPPVLDSDGSFFLYSKLTVDKSRWQQGNVFSCSVMHEALHNHYTQKSLSLSPGK
In the case of B1, the “IL-2 signal transduction, HEK-IL-2-TIGIT” value [1] is reported as 35%, the “IL-12 signal transduction, HEK-IL-12-TIGIT” value [1] is reported as 17% and the “IL-12 signal transduction, HEK-IL-12” value [2] is reported as under 0.2%. For the same binder, the “IL-2 signal transduction, HEK-IL-2” value [3] was 4%.

B2: IL-12(E59A/F60A)/IL-2(L18R/Q22E/R38D/K43E/E61R/Q126T)/CD155-Fc (Fc fusion)
chain 1: WPPPGTGDVVVQAPTQVPGFLGDSVTLPCYLQVPNMEVTHVSQLTWARHGESGSMAVFHQTQGPSYSESKRLEFVAARLGAELRNASLRMFGLRVEDEGNYTCLFVTFPQGSRSVDIWLRVLAKPQNTAEVQKVQLTGEPVPMARCVSTGGRPPAQITWHSDLGGMPNTSQVPGFLSGTVTVTSLWILVPSSQVDGKNVTCKVEHESFEKPQLLTVNLTVYYPPEVSISGYDNNWYLGQNEATLTCDARSNPEPTGYNWSTTMGPLPPFAVAQGAQLLIRPVDKPINTTLICNVTNALGARQAELTVQVKEGPPSEHSGISRNGGGGSGGGIWELKKDVYVVELDWYPDAPGEMVVLTCDTPEEDGITWTLDQSSEVLGSGKTLTIQVKAAGDAGQYTCHKGGEVLSHSLLLLHKKEDGIWSTDILKDQKEPKNKTFLRCEAKNYSGRFTCWWLTTISTDLTFSVKSSRGSSDPQGVTCGAATLSAERVRGDNKEYEYSVECQEDSACPAAEESLPIEVMVDAVHKLKYENYTSSFFIRDIIKPDPPKNLQLKPLKNSRQVEVSWEYPDTWSTPHSYFSLTFCVQVQGKSKREKKDRVFTDKTSATVICRKNASISVRAQDRYYSSSWSEWASVPCSGGGGSGGGSGGGGSRNLPVATPDPGMFPCLHHSQNLLRAVSNMLQKARQTLEFYPCTSEEIDHEDITKDKTSTVEACLPLELTKNESCLNSRETSFITNGSCLASRKTSFMMALCLSSIYEDLKMYQVEFKTMNAKLLMDPKRQIFLDQNMLAVIDELMQALNFNSETVPQKSSLEEPDFYKTKIKLCILLHAFRIRAVTIDRVMSYLNASGGGGSGGGDKTHTCPPCPAPEDEGGPSVFLFPPKPKDTLMISRTPEVTCVVVDVSHEDPEVKFNWYVDGVEVHNAKTKPREEQYNSTYRVVSVLTVLHQDWLNGKEYKCKVSNKALPAPIEKTISKAKGQPREPQVYVYPPSREEMTKNQVSLTCLVKGFYPSDIAVEWESNGQPENNYKTTPPVLDEDGSFALVSKLTVDKSRWQQGNVFSCSVMHEALHNHYTQKSLSLSPGK
chain 2: WPPPGTGDVVVQAPTQVPGFLGDSVTLPCYLQVPNMEVTHVSQLTWARHGESGSMAVFHQTQGPSYSESKRLEFVAARLGAELRNASLRMFGLRVEDEGNYTCLFVTFPQGSRSVDIWLRVLAKPQNTAEVQKVQLTGEPVPMARCVSTGGRPPAQITWHSDLGGMPNTSQVPGFLSGTVTVTSLWILVPSSQVDGKNVTCKVEHESFEKPQLLTVNLTVYYPPEVSISGYDNNWYLGQNEATLTCDARSNPEPTGYNWSTTMGPLPPFAVAQGAQLLIRPVDKPINTTLICNVTNALGARQAELTVQVKEGPPSEHSGISRNGGGSGAPTSSSTKKTQLQLEHLRLDLEMILNGINNYKNPKLTDMLTFEFYMPKKATELKHLQCLERELKPLEEVLNLAQSKNFHLRPRDLISNINVIVLELKGSETTFMCEYADETATIVEFLNRWITFCTSIISTLTGGGGSGGGDKTHTCPPCPAPEKKGGPSVFLFPPKPKDTLMISRTPEVTCVVVDVSHEDPEVKFNWYVDGVEVHNAKTKPREEQYNSTYRVVSVLTVLHQDWLNGKEYKCKVSNKALPAPIEKTISKAKGQPREPQVYVLPPSREEMTKNQVSLLCLVKGFYPSDIAVEWESNGQPENRYMTWPPVLDSDGSFFLYSKLTVDKSRWQQGNVFSCSVMHEALHNHYTQKSLSLSPGK
B2 was tested, and the “IL-2 signal transduction, HEK-IL-2-TIGIT” value [1] was 20%, the “IL-12 signal transduction, HEK-IL-12-TIGIT” value [1] was 19% and the “IL-12 signal transduction, HEK-IL-12” value [2] was under 0.2%. For the same binder, the “IL-2 signal transduction, HEK-IL-2” value [3] was 2%.
